Assay results from US20240358767A1, “STEM CELL DIFFERENTIATION AND CHEMICAL COMPOUNDS” (VERTEX PHARMACEUTICALS INCORPORATED, priority 2021, published 2024).
Values joined by “and” are separate entries in the source; they are usually repeats but may differ in a detail not shown here. Equal entries are not always repeated.

Legend:
Format in all cases: cell-based
human stem cells [1] = assay: Cell cluster morphology under brightfield microscope
Protocol: (§1) In one experiment, differentiation of the stem cells was initiated in spinner flasks using Version A protocol, and three different concentrations of Activin A (“AA”), 100 ng/mL (100%), 10 ng/mL (10%), and 5 ng/mL (5%), applied throughout the three days of Stage 1 were tested, while the remaining differentiation steps were kept the same. On QC days, e.g., upon completion of Stage 1 (“S1C”), completion of Stage 3 (“S3C”), or completion of Stage 5 (“S5C”), the cells were examined for their morphology and cell constituents. Specifically, 5 mL of cell cluster suspension solution were taken from the spinner flask, with 1 mL suspension aliquoted into a 24 well plate. Pictures of the cell clusters in the 24-well plate were taken under brightfield microscope. The cell clusters in the remaining 4 mL suspension were dispersed with TrypLE Express (Life Technologies; 12,604,013) at 37° C. for 20 min, fixed with 4% PFA for 20 mins at 4° C., blocked for 1 hour in FACS buffer (5% Donkey Serum and 0.05% Triton-100 in PBS) at room temperature, and stained with various antibodies against cell markers. Stained cells were then measured using an Accuri 6 flow cytometer (BD Biosciences) and analyzed using FlowJo software.

human stem cells [2] = assay: Version A differentiation, flow cytometry of Nkx6.1 and Isl1 at completion of Stage 5 (S5C)
Protocol: (§2) An exemplary base differentiation protocol, Version A, according to the present disclosure, was used for differentiating human stem cells into mature β cells capable of releasing insulin in response to glucose challenge in vitro.
(§3) Version A protocol is a 6-stage stepwise protocol. With Version A protocol, stem cells were treated with reagents in a manner similar to the Version A described in Example 1 of U.S. Patent Publication No. US20220090020A1, which is incorporated by reference herein in its entirety. In some experiments, Version A was modified such that 100 ng/mL Activin A at Stage 1 was replaced with a different concentration of Activin A as described below.
as §1
(§4) In one experiment, four different conditions for Stage 1 differentiation were tested: 100% Activin A, 10% Activin A, 10% Activin A plus GSK-690693 (“GSK”), or 10% Activin A plus BYL719 (“BYL”). Characterization of cell morphology and cell constituents were conducted similarly as described in EXAMPLE 1. The experiment was repeated for four times. Table 3 summarizes the quantification of flow cytometry analysis results at S1C, S3C, and S5C, and total viable cell yield at S5C for the four runs. In all the four runs, 0.1 μM […] or 0.04 μM BYL719 was applied for 3 days of Stage 1, except that in the last two runs, Run 4 and Run 5, 0.04 μM of BYL719 was applied for only 2 days (days S1d1 and S1d2).
(§5) In one experiment, six different conditions for Stage 1 differentiation were tested: 100% Activin A, 10% Activin A, 10% Activin A plus GSK-690693, 10% Activin A plus BYL719, 10% Activin A plus GSK-690693 and BYL719, or 100% Activin A plus GSK-690693 and BYL719. Characterization of cell morphology and cell constituents were conducted similarly as described in EXAMPLE 1. FIGS. 2A-5E and Table 4 summarize the characterizations of the cells obtained under the six differentiation conditions at different stages.

human stem cells [3] = assay: Stage 1 differentiation of stem cells (Version A protocol), flow cytometry of Oct4 and Sox17 at completion of Stage 1 (S1C)
Protocol: as §2, §3, §1
In another experiment, a dose-response test was conducted to examine the effects of different concentrations of Activin A at Stage 1 on stem cell differentiation. Five different concentrations of Activin A were tested: 100 ng/mL (100%), 20 ng/mL (20%), 10 ng/mL (10%), 5 ng/mL (5%), and 0 ng/mL (0%).
as §4, §5

human stem cells [4] = assay: Version A differentiation, flow cytometry of Pdx1, Cdx2 and Sox2 at completion of Stage 3 (S3C); settings: for S3C Pdx1: Runs 3-5, listed as AA
Protocol: as §2, §3, §1, §4, §5

human stem cells [5] = assay: Total viable cell yield at S5C; settings: 10% AA (10 ng/mL Activin A) at Stage 1, Runs 4-5, listed as AA
Protocol: as §2, §3, §4

human stem cells [6] = assay: Version A differentiation, flow cytometry of Nkx6.1 and Isl1 on day 7 of Stage 6 (S6d7); settings: for S6d7 Nkx6.1 + /Isl1+: day 7 of Stage 6
Protocol: as §2, §3, §1, §5
In another experiment, the effects of the aforementioned six different conditions for Stage 1 differentiation on Stage 6 differentiation were tested under two Stage 6 medium regimens: regimen 1 (Table 5) and regimen 2 (Table 6).

[7] = 5% Activin A (5 ng/mL) throughout Stage 1
[8] = 10% AA (10 ng/mL Activin A) at Stage 1
[9] = 10% Activin A (10 ng/mL) throughout Stage 1
[10] = 100% AA (100 ng/mL Activin A) at Stage 1
[11] = 100% Activin A (100 ng/mL) throughout Stage 1
[12] = reduced concentrations of Activin A (10% or 5%) vs 100%
[13] = Stage 6 Regimen 1, 10% AA (10 ng/mL Activin A) at Stage 1
[14] = Stage 6 Regimen 1, 100% AA (100 ng/mL Activin A) at Stage 1
[15] = Stage 6 Regimen 2, 10% AA (10 ng/mL Activin A) at Stage 1
[16] = Stage 6 Regimen 2, 100% AA (100 ng/mL Activin A) at Stage 1

B1: Activin A: growth factor from the TGF-β superfamily; exemplary sequences SEQ ID NO: 1-15 in Table 1 (protein, UniProt P08476 311-426, looked up)
Inhibin beta A chain: GLECDGKVNICCKKQFFVSFKDIGWNDWIIAPSGYHANYCEGECPSHIAGTSGSSLSFHSTVINHYRMRGHSPFANLKSCCVPTKLRPMSMLYYDDGQNIIKKDIQNMIVEECGCS
modifications: Inhibin beta A chain
Human stem cells [1]; 5% Activin A
  cell cluster morphology at completion of Stage 5: altered morphology
Human stem cells [1]; 10% or 5% Activin A at Stage 1 vs 100% Activin A
  cell cluster morphology at completion of Stage 3: altered morphology
Human stem cells [1]; 10% or 5% Activin A vs 100% Activin A, irregular shapes and rough edge
  cell cluster morphology at completion of Stage 1: altered morphology
Human stem cells [2]; 5% Activin A
  percentage of Nkx6.1-positive cells at S5C: reduced percentage
Human stem cells [2]; [7]
  S5c − Nkx6.1+/Isl1+: 25.9%
  S5c − Nkx6.1+/Isl1−: 25.3%
Human stem cells [2]; [8]
  S5C Nkx6.1+/Isl1+: 32.9%
Human stem cells [2]; 10% AA (10 ng/mL Activin A) at Stage 1, Runs 3-5, listed as AA
  S5C Nkx6.1+/Isl1+: 25.2 and 38.7 and 32.9
Human stem cells [2]; [9]
  S5c − Nkx6.1+/Isl1+: 32.9%
  S5c − Nkx6.1+/Isl1−: 49.5%
Human stem cells [2]; 10% Activin A (10 ng/mL) throughout Stage 1, listed as AA
  S5c − Nkx6.1+/Isl1−: 49.5%
Human stem cells [2]; [10]
  S5C Nkx6.1+/Isl1+: 32.6%
Human stem cells [2]; 100% AA (100 ng/mL Activin A) at Stage 1, Runs 3-5, listed as AA
  S5C Nkx6.1+/Isl1+: 31.5 and 36.6 and 32.6
Human stem cells [2]; [11]
  S5c − Nkx6.1+/Isl1+: 32.6%
  S5c − Nkx6.1+/Isl1−: 41.1%
Human stem cells [2]; 100% Activin A (100 ng/mL) throughout Stage 1, listed as AA
  S5c − Nkx6.1+/Isl1−: 41.1%
Human stem cells [3]; [7]
  S1c − Oct4−/Sox17+: 76.4%
Human stem cells [3]; [8]
  S1C Sox17 + /Oct4+: 3.29%
  S1C Sox17+/Oct4−: 87.1%
Human stem cells [3]; 10% AA (10 ng/mL Activin A) at Stage 1, Runs 2-5, listed as AA
  S1C Sox17+/Oct4−: 61.6 and 80.5 and 87.1 and 73.8
Human stem cells [3]; [9]
  S1c − Oct4−/Sox17+: 87.1%
Human stem cells [3]; [10]
  S1C Sox17 + /Oct4+: 3.41%
  S1C Sox17+/Oct4−: 79.1%
Human stem cells [3]; 100% AA (100 ng/mL Activin A) at Stage 1, Runs 2-5, listed as AA
  S1C Sox17+/Oct4−: 78.2 and 88.2 and 79.1 and 84.5
Human stem cells [3]; [11]
  S1c − Oct4−/Sox17+: 79.1%
Human stem cells [3]; among 100%, 10% and 5% Activin A
  percentage of Oct4-negative, Sox17-positive cells at S1C: not significant difference
Human stem cells [3]; dose-response test, 100% Activin A (100 ng/mL) at Stage 1
  percentage of Sox17−/Oct4+ cells at S1C: under 1%
Human stem cells [3]; dose-response test, Activin A reduced from 100% to 20%, 10%, or 5%
  percentage of Sox17−/Oct4+ cells at S1C: did not change significantly
Human stem cells [3]; dose-response test, reduced Activin A (20%, 10%, and 5%) vs 100%
  percentage of double negative cells (Sox17-negative, Oct4-negative) at S1C: increase
Human stem cells [4]; [7]
  S3c − Cdx2+/Pdx1+: 27.0%
  S3c− Sox2+/Pdx1+: 9.76%
Human stem cells [4]; 5% Activin A (5 ng/mL) throughout Stage 1, first line with this head (r7)
  S3c − Cdx2+/Pdx1−: 6.22%
Human stem cells [4]; 5% Activin A (5 ng/mL) throughout Stage 1, second line with this head (r9)
  S3c − Cdx2+/Pdx1−: 3.63%
Human stem cells [4]; [8]
  S3C Pdx1 + /Cdx2+: 32.7%
  S3C Pdx1 + /Sox2+: 3.89%
  S3C Pdx1: 56.9 and 93.3 and 75.8
Human stem cells [4]; [9]
  S3c − Cdx2+/Pdx1+: 32.7%
  S3c− Sox2+/Pdx1+: 3.89%
Human stem cells [4]; 10% Activin A (10 ng/mL) throughout Stage 1, first line with this head (r7)
  S3c − Cdx2+/Pdx1−: 1.28%
Human stem cells [4]; 10% Activin A (10 ng/mL) throughout Stage 1, second line with this head (r9)
  S3c − Cdx2+/Pdx1−: 1.90%
Human stem cells [4]; [10]
  S3C Pdx1 + /Cdx2+: 3.21%
  S3C Pdx1 + /Sox2+: 38.8%
  S3C Pdx1: 72.7 and 95.3 and 84.61
Human stem cells [4]; [11]
  S3c − Cdx2+/Pdx1+: 3.21%
  S3c− Sox2+/Pdx1+: 38.8%
Human stem cells [4]; 100% Activin A (100 ng/mL) throughout Stage 1, first line with this head (r7)
  S3c − Cdx2+/Pdx1−: 0.061%
Human stem cells [4]; 100% Activin A (100 ng/mL) throughout Stage 1, second line with this head (r9)
  S3c − Cdx2+/Pdx1−: 1.29%
Human stem cells [4]; [12]
  cells expressing Cdx2 at S3C: more
  cells expressing Sox2 at S3C: fewer
Human stem cells [5]
  St5C yield: 2.56e+06 mL⁻¹ and 4.1968e+06 mL⁻¹
Human stem cells [6]; [8]
  S6d7 Nkx6.1 + /Isl1+: 35.4%
Human stem cells [6]; [10]
  S6d7 Nkx6.1 + /Isl1+: 37.3%
Human stem cells [6]; [13]
  Markers on S6d7 Isl1 + /Nkx6.1+: 35.4
  Markers on S6d7 Isl1 + /Nkx6.1−: 5.34
Human stem cells [6]; [14]
  Markers on S6d7 Isl1 + /Nkx6.1+: 37.3
  Markers on S6d7 Isl1 + /Nkx6.1−: 7.38
Human stem cells [6]; [15]
  Markers on S6d7 Isl1 + /Nkx6.1+: 34.6
  Markers on S6d7 Isl1 + /Nkx6.1−: 5.42
Human stem cells [6]; [16]
  Markers on S6d7 Isl1 + /Nkx6.1+: 37.8
  Markers on S6d7 Isl1 + /Nkx6.1−: 7.16
